The text below walks through data of US20210283258A1.

The test addresses HER2 receptor (human) (UniProt P04626). Briefly: cell-based or functional assay. The note with it: scale: % greater uptake compared to the non-targeted nanoparticle.

“Herceptin®-PEG-nitroPBA targeted MAP-CPT nanoparticle (antibody)” came in with a cellular uptake in BT-474 cell line (CPT fluorescence of cell lysate, 30 min at 37° C.) of 70.
